Changes are numbered by the printed parent chain.
B1: H2M2690N (antibody, mouse IgG2, V domains shown)
VH: EVQLVESGGGLVQPGRSLRLSCAASGFTFDDYTMHWVRQAPGKGLEWVSGISWNSGSIGYADSVKGRFTISRDNAKKSLYLQMNSLRAEDTALYYCAKDNSGYGHYYYGMDVWGQGTTVTVAS
VL: EIVMTQSPATLSVSPGERATLSCRASQSVSSNLAWYQQKPGQAPRLLIYGASTRATGIPARFSGSGSGTEFTLTISSLQSEDFAVYYCQHYINWPLTFGGGTKVEIK
notes: H2M: mouse IgG2 Fc, human variable regions; divalent
B2: H1M3549N (antibody, mouse IgG1, V domains shown)
VH: EVQLVESGGGLVQPGRSLRLSCVASGFPFADYTMHWVRQAPGKGLEWVSDISWNSGSIGYADSVKGRFTISRDNAKNSLYLQMNSLRTEDTALYYCAKDMSGYAHYFYYGMDVWGQGTTVTVSS
VL: not shown
notes: H1M: mouse IgG1 Fc, human variable regions; divalent
B3: H1M3542N (antibody, mouse IgG1, V domains shown)
VH: B2 VH with I58K, L93F
VL: not shown
notes: as for B2
B4: H1M3613N (antibody, mouse IgG1, V domains shown)
VH: B2 VH with R19K, V23T, P28T, A40G, I58K, F107Y, G110A, M111L
VL: not shown
notes: as for B2
B5: H2M3548N (antibody, mouse IgG2, V domains shown)
VH: EVQLVESGGGLVQPGRSLRLSCAASGFKFADYAMHWVRQAPGKGLEWVSEISWNSGSIGYVDSVKGRFTISRDNAKNSLYLQMNSLRAEDTALYYCVKDKSGYGHYYIGMDVWGQGTTVIVSS
VL: not shown
notes: as for B1
B6: H2M2778N (antibody, mouse IgG2, V domains shown)
VH: EVQLVESGGGLVQPGRSLRLSCAASGFTFDDYSMHWVRQAPGKGLEWVSGISWNSRSIDYADSVKGRFTISRDNAKNSLYLQMNSLRAEDTALYYCVKDNSGYGRYYYYGMDVWGQGTTVSVSS
VL: B1 VL with E1K, S31G, G57S, Y87F, I92Y, K107R
notes: as for B1
B7: H2M2789N (antibody, mouse IgG2, V domains shown)
VH: QVTLKESGPALVKPTQTLTLTCTFSGFSLSTSGMCVSWIRQPPGKALEWLARIDWDDDKYYSTSLKTRLTISKDTSKNQVVLTMTNMDPVDTATYYCARMDIVGARGGWFDPWGQGTLVTVSS
VL: DIQMTQSPSSLSASVGDRVTITCRASQGISNYLAWFQQKPGKAPKSLIYAASSLQSGVPSKFSGSGSGTDFTLTISSLQPEDFATYYCQQYNSYPLTFGGGTKVEIK
B8: H1H5799P (antibody, human IgG1, V domains shown)
VH: QVQLVQSGAEVKKPGASVKVSCKASGYTFIGYYMHWVRQAPGQGLEWMGWINPKSGGTNYAQKFQGRVTMTGDTSISTAYMELSRLRSDDTAVFYCARMGDGAMFDYWGQGTLVTVSS
VL: DIQMTQSPSSLSASVGDRVTITCRASQRISSYLNWYQQKAGKAPKVLIYTASSLQSGVPSRFSGSGSGTDFTLTISSLQPEDFATYYCQQSYSTPLTFGGGTKVEIK
B9: H2M2711N (antibody, V domains shown)
VH: QVQLVESGGGVVQPGRSLRLSCAASGFTFRSFGMHWVRQAPGRGLEWVAMIYFDGKNKYYADSVRGRFTISRDNSKNTLYLEMSSLRAEDTAVYFCARGPGYNWLDPWGQGTLVTVSS
VL: B1 VL with S31R, I58V, Y86F, Y87H, H90Q, I92N, W94R, K103E
B10: H1M2712N (antibody, mouse IgG1, V domains shown)
VH: B1 VH with R16G, S25T, Y32F, A61V, K77N, H105Y, A122S
VL: B1 VL with Q27H, S31R, L33S, V85I, H90Q, I92N
B11: H2M2774N (antibody, mouse IgG2, V domains shown)
VH: B9 VH with A23V, F32Y, R43K, E46Q, F53Y, E82Q, S84N, V93M
VL: B1 VL with S28R, V29I, I58S, F83V, H90Q, Y91H, I92N
B12: H2M2775N (antibody, mouse IgG2, V domains shown)
VH: B9 VH
VL: EIVMTQSPATLSVSPGERVILSCRASQSISRNLAWYQQKPGQAPRLLIYGATTRATGVPARFSGSGSGTEFTLTISSLQSEDFAVFYCQQYNNRPLTFGGGTEVEIK
B13: H2M2777N (antibody, mouse IgG2, V domains shown)
VH: B9 VH with A23I, F32Y, R43K, F53Y, K56N, E82Q, S84N, E89D
VL: B1 VL with H90Q, I92N, W94R
B14: H2M2778N (antibody, mouse IgG2, V domains shown)
VH: B6 VH
VL: B1 VL with E1K, S31G, G57S, Y87F, I92Y, K107R
B15: H2M2779N (antibody, V domains shown)
VH: B1 VH with R16G, S25T, Y32F, A61V, K77N, H105Y, A122S
VL: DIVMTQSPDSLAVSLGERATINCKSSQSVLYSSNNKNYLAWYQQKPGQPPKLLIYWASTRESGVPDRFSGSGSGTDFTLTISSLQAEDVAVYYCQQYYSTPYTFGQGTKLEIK
B16: H2M2862N (antibody, mouse IgG2, V domains shown)
VH: B9 VH with F32Y, R43K, F53Y, K56N, Y59K, E82Q, S84N, A88V
VL: B1 VL with S31R, G57D, T72I, T74N, V85L, H90Q, I92S, K103E
B17: H2M2885N (antibody, mouse IgG2, V domains shown)
VH: B9 VH
VL: B12 VL
B18: H2M2886N (antibody, mouse IgG2, V domains shown)
VH: B9 VH
VL: B12 VL
B19: H2M3540N (antibody, mouse IgG2, V domains shown)
VH: QVHLEESGGGVVQPGRSLRLSCSASGFTFSSYAMHWVRQAPGKGLEWVAVIWYDGTNKYYLDSVKGRFTISRDNSKNTLFLQMNSLRAEDTAVYYCARDRGSIITHWGQGTLVTVSS
VL: DIQMTQSPSSLSASIGDRVTITCRASQNISSYLNWYQQKPGKAPKLLIYAASSLQSGVPSRFSGSGSGTDFTLTISSLQPEDFATYYCQQTYSTPPITFGQGTRLEIK
B20: H2M3541N (antibody, mouse IgG2, V domains shown)
VH: B2 VH with Q13R, V23A, P28T, A30D, S57T, T88P, F107Y
VL: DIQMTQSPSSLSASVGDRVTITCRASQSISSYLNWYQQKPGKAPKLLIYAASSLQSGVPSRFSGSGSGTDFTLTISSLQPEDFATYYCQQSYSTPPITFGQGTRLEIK
B21: H1M3542N (antibody, mouse IgG1, V domains shown)
VH: B2 VH with I58K, L93F
VL: not shown
B22: H2M3543N (antibody, mouse IgG2, V domains shown)
VH: B2 VH with V23A, P28T, A30D, I70V, T88G, F107G
VL: B19 VL with I15V, N28S, S30R, S31N, A43V, T91S, T94N
B23: H1M3544N (antibody, mouse IgG1, V domains shown)
VH: EVQLVESGGGLVQPGRSLRLSCAASGFTFDDYTMHWVRQVPGKGLEWVSGISWNSGSLAYADSVKGRFTISRDNAKNSLYLQMNSLHPEDTALYYCVKDGSGYGHYSYYGLDVWGQGTTVTVSS
VL: not shown
B24: H2M3548N (antibody, mouse IgG2, V domains shown)
VH: B5 VH
VL: not shown
B25: H1M3549N (antibody, mouse IgG1, V domains shown)
VH: B2 VH
VL: not shown
B26: H1M3613N (antibody, mouse IgG1, V domains shown)
VH: B2 VH with R19K, V23T, P28T, A40G, I58K, F107Y, G110A, M111L
VL: not shown

These binders were tested against T1, human CD3 expressed on cells (Jurkat cells, a CD3+ human T-cell line; human PBMC T cells) (human, UniProt P07766 23-207; P04234 22-171) (assay: FACS on Jurkat cells).
T1 construct: Cell-surface CD3 within the T cell receptor complex
Method: FACS data was acquired using the following protocol: Cells at 2×10⁵ per well were incubated with serially diluted antibodies for 30 min on ice. Post incubation, cells were washed and secondary antibody was added and incubated for an additional 30 minutes. After incubation, cells were washed, re-suspended in cold PBS containing 1% BSA and analyzed by flow cytometry with viable Jurkat cells gated by side and forward scatters. The EC₅₀s for cell binding titration were determined using Prism software with values calculated using a 4-parameter non-linear regression analysis.

T1 sequence (P07766 23-207 limits assumed, chain 1 of 2): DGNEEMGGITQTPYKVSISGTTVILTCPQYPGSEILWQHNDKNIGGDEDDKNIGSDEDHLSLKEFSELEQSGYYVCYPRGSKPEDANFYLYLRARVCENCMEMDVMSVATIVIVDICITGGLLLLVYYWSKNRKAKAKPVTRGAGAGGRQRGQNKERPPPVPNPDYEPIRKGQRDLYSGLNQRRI
T1 sequence (P04234 22-171 limits assumed, chain 2 of 2): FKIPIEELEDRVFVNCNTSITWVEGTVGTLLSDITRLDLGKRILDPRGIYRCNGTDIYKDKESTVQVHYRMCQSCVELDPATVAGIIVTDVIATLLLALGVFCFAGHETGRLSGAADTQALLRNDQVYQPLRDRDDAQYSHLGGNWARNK

With B1 as the binder, how does the EC50 read?
The EC50 was 4.37 nM.

B2 was tested. Which EC50 did it give?
The EC50 was 2.3 nM.

How did the EC50 turn out when B3 was run?
Its EC50 is 2.01 nM.

With B4 as the binder, how does the EC50 read?
The EC50 was 10.3 nM.

Which EC50 does the source give for B5 here?
The EC50 was 1.1 nM.

B6 was tested. Which EC50 did it give?
The EC50 was 3.62 nM.

These binders were tested against T1, human CD3 expressed on cells (Jurkat …) (assay: cell-based or functional assay).

How did the “EC50 [M] hPBMC Proliferation” value turn out when B1 was run?
The value was 5.37e-12 M.

B7 was tested. Which “EC50 [M] hPBMC Proliferation” value did it give?
The value was 2.85e-08 M.

For B5, which “EC50 [M] hPBMC Proliferation” value is on record?
Its value is 1.89e-12 M.

What follows are binders tested against T2, human CD3 expressed on cells (Jurkat cells; human T-cells of PBMC) (human, UniProt P09693 23-182; P20963 22-164) (assay: cell-based or functional assay).
T2 sequence (chain, as listed by the source, chain 1 of 4): as the sequence (P07766 23-207 limits assumed, chain 1 of 2) above
T2 sequence (chain, as listed by the source, chain 2 of 4): as the sequence (P04234 22-171 limits assumed, chain 2 of 2) above
T2 sequence (P09693 23-182, chain 3 of 4): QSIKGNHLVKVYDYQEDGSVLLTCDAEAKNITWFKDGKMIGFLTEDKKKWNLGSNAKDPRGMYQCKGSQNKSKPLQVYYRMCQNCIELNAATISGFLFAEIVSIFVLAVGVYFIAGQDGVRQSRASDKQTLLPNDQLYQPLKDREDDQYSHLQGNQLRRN
T2 sequence (P20963 22-164, chain 4 of 4): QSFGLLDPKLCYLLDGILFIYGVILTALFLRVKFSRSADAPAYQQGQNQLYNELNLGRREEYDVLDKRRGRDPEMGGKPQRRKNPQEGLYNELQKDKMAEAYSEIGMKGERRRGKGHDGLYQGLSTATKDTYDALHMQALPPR

Which “EC50 [M] hPBMC Proliferation” value does the source give for B8 here?
The value was 1.63e-13 M.

Biological target: T2, human CD3 expressed on cells (Jurkat …)
Experiment: cell-based or functional assay
Remark: another data set of the same source

For B9, which “U937 Cytotoxicity Human T-cells” value is on record?
The value was 3.66 pM.

With B10 as the binder, how does the “U937 Cytotoxicity Human T-cells” value read?
The value was 314 pM.

With B11 as the binder, how does the “U937 Cytotoxicity Human T-cells” value read?
Its value is 2.46 pM.

B12 was tested. Which “U937 Cytotoxicity Human T-cells” value did it give?
The value was 3.38 pM.

With B13 as the binder, how does the “U937 Cytotoxicity Human T-cells” value read?
Its value is 4.86 pM.

B14 was tested. Which “U937 Cytotoxicity Human T-cells” value did it give?
The value was 0 pM.

B15 was tested. Which “U937 Cytotoxicity Human T-cells” value did it give?
The value was 675 pM.

B16 was tested. Which “U937 Cytotoxicity Human T-cells” value did it give?
The value was 7.66 pM.

How did the “U937 Cytotoxicity Human T-cells” value turn out when B17 was run?
The value was 3.71 pM.

With B18 as the binder, how does the “U937 Cytotoxicity Human T-cells” value read?
The value was 8.06 pM.

How did the “U937 Cytotoxicity Human T-cells” value turn out when B19 was run?
Its value is 12.5 pM.

Which “U937 Cytotoxicity Human T-cells” value does the source give for B20 here?
Its value is 53.9 pM.

Which “U937 Cytotoxicity Human T-cells” value does the source give for B21 here?
Its value is 29.2 pM.

For B22, which “U937 Cytotoxicity Human T-cells” value is on record?
Its value is 13.1 pM.

With B23 as the binder, how does the “U937 Cytotoxicity Human T-cells” value read?
Its value is 172 pM.

With B24 as the binder, how does the “U937 Cytotoxicity Human T-cells” value read?
The value was 5.5 pM.

How did the “U937 Cytotoxicity Human T-cells” value turn out when B25 was run?
Its value is 107 pM.

Which “U937 Cytotoxicity Human T-cells” value does the source give for B26 here?
Its value is 866 pM.

Each binder was assayed against T3, Soluble heterodimeric CD3 protein (hCD3-epsilon/hCD3-delta) with either a human Fc tag (hFcΔAdp/hFc) or a … (human, UniProt P07766 23-126; P04234 22-105) (assay: SPR Biacore 25C antigen-capture).
T3 construct: also called hCD3ε/δ; not shown: Fc tag: human (hFcΔAdp/hFc)
Method in brief: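 Rate constants fitted to a 1:1 model, giving KD as kd/ka and dissociative half-life as ln2/(60·kd) minutes. Antibodies flowed over CD3ε/δ heterodimer captured on anti-human or anti-mouse Fc surfaces, run on a Biacore T200 at 25 °C.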

T3 sequence (P07766 23-126 limits assumed, stated change not applied, chain 1 of 2): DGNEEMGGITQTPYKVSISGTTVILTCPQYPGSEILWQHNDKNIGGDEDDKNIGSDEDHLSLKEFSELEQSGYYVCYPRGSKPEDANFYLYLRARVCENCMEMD
T3 sequence (P04234 22-105 limits assumed, stated change not applied, chain 2 of 2): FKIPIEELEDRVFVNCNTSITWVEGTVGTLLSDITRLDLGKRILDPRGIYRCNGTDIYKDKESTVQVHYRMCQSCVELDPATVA

Which results are given for B1?
Kd: 0.0799 nM; T½: 30.3 h; koff: 6.35e-06 s⁻¹; kon: 75100 M⁻¹ s⁻¹

For B2, which Kd is on record?
Its Kd is 1.03 nM.

And the “T½” value?
The value was 0.667 h.

What about the koff of the same binder?
Its koff is 0.000289 s⁻¹.

And the kon?
Its kon is 281000 M⁻¹ s⁻¹.

Which Kd does the source give for B3 here?
Its Kd is 0.457 nM.

And the “T½” value?
Its value is 0.967 h.

And the koff?
The koff was 0.0002 s⁻¹.

And the kon?
Its kon is 437000 M⁻¹ s⁻¹.

Which results are given for B4?
Kd: 0.435 nM; T½: 2 h; koff: 9.6e-05 s⁻¹; kon: 220000 M⁻¹ s⁻¹

How did the Kd turn out when B6 was run?
Its Kd is 0.0468 nM.

And the “T½” value?
Its value is 29.3 h.

What about the koff of the same binder?
Its koff is 6.57e-06 s⁻¹.

What about the kon of the same binder?
Its kon is 150000 M⁻¹ s⁻¹.

From patent publication US20190127480A1 (Regeneron, published 2019)
